In paper PMC3017772, “The CaaX specificities of Arabidopsis protein prenyltransferases explain era1 and ggb phenotypes” (BMC Plant Biology, 2010):

Assays:
[1] = target: recombinant Arabidopsis protein geranylgeranyltransferase type 1 (PGGT1) (Arabidopsis (ecotype Col-0)) (UniProt Q9LX33)
[2] = target: recombinant Arabidopsis protein farnesyltransferase (PFT) (Arabidopsis (ecotype Col-0)) (UniProt Q9LX33)
Sequence of recombinant Arabidopsis protein farnesyltransferase (PFT) (Arabidopsis (ecotype Col-0)) (Q9LX33 whole entry, chain 1 of 2): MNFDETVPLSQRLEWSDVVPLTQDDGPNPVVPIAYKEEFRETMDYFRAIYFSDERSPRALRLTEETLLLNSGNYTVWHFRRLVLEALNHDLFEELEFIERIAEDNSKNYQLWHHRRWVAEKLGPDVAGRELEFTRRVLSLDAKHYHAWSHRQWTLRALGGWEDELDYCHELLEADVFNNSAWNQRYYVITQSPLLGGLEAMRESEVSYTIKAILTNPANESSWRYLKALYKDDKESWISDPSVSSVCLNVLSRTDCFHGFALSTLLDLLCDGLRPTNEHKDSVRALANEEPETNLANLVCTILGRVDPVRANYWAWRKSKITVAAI
Sequence of recombinant Arabidopsis protein farnesyltransferase (PFT) (Arabidopsis (ecotype Col-0)) (Q38920 whole entry, chain 2 of 2, further chain): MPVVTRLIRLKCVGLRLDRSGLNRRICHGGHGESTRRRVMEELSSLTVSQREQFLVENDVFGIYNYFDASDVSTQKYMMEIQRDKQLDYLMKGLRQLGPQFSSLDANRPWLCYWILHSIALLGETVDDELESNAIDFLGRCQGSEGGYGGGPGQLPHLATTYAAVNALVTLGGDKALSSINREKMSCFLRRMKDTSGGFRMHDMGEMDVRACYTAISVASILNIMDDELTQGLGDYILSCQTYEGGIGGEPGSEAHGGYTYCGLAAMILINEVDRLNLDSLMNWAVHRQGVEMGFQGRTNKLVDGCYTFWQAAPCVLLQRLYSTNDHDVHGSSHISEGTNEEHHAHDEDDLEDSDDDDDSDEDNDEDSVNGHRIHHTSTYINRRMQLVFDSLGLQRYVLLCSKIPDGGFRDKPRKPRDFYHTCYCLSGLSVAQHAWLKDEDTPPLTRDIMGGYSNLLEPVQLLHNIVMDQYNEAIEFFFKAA

Sequence of recombinant Arabidopsis protein geranylgeranyltransferase type 1 (PGGT1) (Arabidopsis (ecotype Col-0)) (Q9LX33 whole entry, chain 1 of 2): as the sequence (Q9LX33 whole entry, chain 1 of 2) above
Sequence of recombinant Arabidopsis protein geranylgeranyltransferase type 1 (PGGT1) (Arabidopsis (ecotype Col-0)) (O80642 whole entry, chain 2 of 2, further chain): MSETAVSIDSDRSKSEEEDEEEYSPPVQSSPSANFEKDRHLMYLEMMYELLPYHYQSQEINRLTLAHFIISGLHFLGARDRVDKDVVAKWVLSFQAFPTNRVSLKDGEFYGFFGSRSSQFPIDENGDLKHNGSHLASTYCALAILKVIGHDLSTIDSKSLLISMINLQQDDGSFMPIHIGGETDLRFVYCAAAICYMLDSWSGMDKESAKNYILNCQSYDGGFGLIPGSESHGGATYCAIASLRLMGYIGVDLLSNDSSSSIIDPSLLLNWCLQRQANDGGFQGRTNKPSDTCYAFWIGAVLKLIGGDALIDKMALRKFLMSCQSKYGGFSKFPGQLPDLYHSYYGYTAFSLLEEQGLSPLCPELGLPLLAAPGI

Km for the CaaX protein substrate; in vitro prenylation by purified PGGT1 with [1-3H]geranylgeranyl diphosphate, Lineweaver-Burk analysis [1] | Km for the CaaX protein substrate; in vitro prenylation by purified PFT with [1-3H]farnesyl diphosphate, Lineweaver-Burk analysis [2] | Substance
19 µM | 6.9 µM | GFP-BD-CVII
17.2 µM | 7 µM | GFP-BD-CVIL
5.8 µM | 5.4 µM | GFP-BD-CVIM
3.5 µM | 5.5 µM | GFP-BD-CVIQ
